Experimental data taken from publication PMC8080530, “Glucocorticoid receptor Thr524 phosphorylation by MINK1 induces interactions with 14-3-3 protein regulators” (The Journal of Biological Chemistry, 2021).
No end group written: not given here. *: point of attachment. FITC = O=C1OC2(c3ccc(O)cc3Oc3cc(O)ccc32)c2ccc(NC(=S)*)cc21

Experiments:
[1] = biological target: GR_pT524-pS617 with pT524 replaced by alanine (alanine scan) (human) (UniProt P04150); experiment: fluorescence polarisation; FITC-labelled peptide at 60 nM (monophosphorylated) or 10 nM (doubly phosphorylated) titrated with 14-3-3ζ or 14-3-3σ in dilution series from 300 μM or 150 μM; 30 min at RT; 384-well plate; Hill fit; triplicates
[2] = biological target: GR_pT524-pS617 with R614 replaced by alanine (alanine scan) (human) (UniProt P04150); experiment: as above
[3] = biological target: GR_pS134, FITC-labelled 13-mer phosphopeptide (human) (UniProt P04150); experiment: as above
[4] = biological target: GR_pS134-pT524, FITC-labelled 31-mer doubly phosphorylated peptide (human) (UniProt P04150); experiment: as above
[5] = biological target: GR_pT524-pT562, FITC-labelled 51-mer doubly phosphorylated peptide with the native sequence as a linker (human) (UniProt P04150); experiment: as above
[6] = biological target: GR_pT524-pS617 with pS617 replaced by alanine (alanine scan) (human) (UniProt P04150); experiment: as above
[7] = biological target: GR_pS524-pS617, FITC-labelled diphosphoserine analogue of GR_pT524-pS617 (human) (UniProt P04150); experiment: as above
[8] = biological target: GR_pT524-pS617, FITC-labelled 31-mer doubly phosphorylated peptide (human) (UniProt P04150); experiment: as above
[9] = biological target: GR_pT524-pS617 with P526 replaced by alanine (alanine scan) (human) (UniProt P04150); experiment: as above
[10] = biological target: GR_pT524-pS617 with K518 replaced by alanine (alanine scan) (human) (UniProt P04150); experiment: as above
[11] = biological target: human 14-3-3ζ, full length, 6His-Linker-h14-3-3 (human) (UniProt P63104); experiment: SPR; Biacore 3000; 6His-tagged 14-3-3 immobilised on an NTA chip (2000 RU 14-3-3ζ, 4000 RU 14-3-3σ); peptides injected in HBS P+ buffer with 1 or 3% DMSO, 20 μl/min; Hill fit; triplicates
[12] = biological target: GFP-GR T524A S617A, full-length GR double mutant (human) (UniProt P04150); experiment: co-IP; GFP-Trap agarose beads on RIPA lysates of transfected U2OS or HEK293 cells stimulated with forskolin or calyculin A; blot with anti-pan 14-3-3 antibody
[13] = biological target: T1, human 14-3-3ζ, full length, 6His-Linker-h14-3-3 (human, UniProt P63104 1-245); experiment: SPR
T1 chain: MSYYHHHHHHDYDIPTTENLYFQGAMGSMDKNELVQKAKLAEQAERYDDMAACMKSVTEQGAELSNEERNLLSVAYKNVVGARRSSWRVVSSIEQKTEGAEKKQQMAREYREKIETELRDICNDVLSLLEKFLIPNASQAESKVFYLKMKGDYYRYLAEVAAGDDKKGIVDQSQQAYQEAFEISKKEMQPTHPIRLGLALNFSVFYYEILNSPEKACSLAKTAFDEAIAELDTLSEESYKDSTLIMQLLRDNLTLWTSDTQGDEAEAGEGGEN

[14] = biological target: T1, human 14-3-3ζ, full length, …; experiment: FP

Chain of GR_pT524-pT562, FITC-labelled 51-mer doubly phosphorylated peptide with the native sequence as a linker (human) (P04150 518-568): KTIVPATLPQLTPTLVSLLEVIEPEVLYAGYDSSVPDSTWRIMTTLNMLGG
Chain of GFP-GR T524A S617A, full-length GR double mutant (human) (P04150 whole entry T524A/S617A): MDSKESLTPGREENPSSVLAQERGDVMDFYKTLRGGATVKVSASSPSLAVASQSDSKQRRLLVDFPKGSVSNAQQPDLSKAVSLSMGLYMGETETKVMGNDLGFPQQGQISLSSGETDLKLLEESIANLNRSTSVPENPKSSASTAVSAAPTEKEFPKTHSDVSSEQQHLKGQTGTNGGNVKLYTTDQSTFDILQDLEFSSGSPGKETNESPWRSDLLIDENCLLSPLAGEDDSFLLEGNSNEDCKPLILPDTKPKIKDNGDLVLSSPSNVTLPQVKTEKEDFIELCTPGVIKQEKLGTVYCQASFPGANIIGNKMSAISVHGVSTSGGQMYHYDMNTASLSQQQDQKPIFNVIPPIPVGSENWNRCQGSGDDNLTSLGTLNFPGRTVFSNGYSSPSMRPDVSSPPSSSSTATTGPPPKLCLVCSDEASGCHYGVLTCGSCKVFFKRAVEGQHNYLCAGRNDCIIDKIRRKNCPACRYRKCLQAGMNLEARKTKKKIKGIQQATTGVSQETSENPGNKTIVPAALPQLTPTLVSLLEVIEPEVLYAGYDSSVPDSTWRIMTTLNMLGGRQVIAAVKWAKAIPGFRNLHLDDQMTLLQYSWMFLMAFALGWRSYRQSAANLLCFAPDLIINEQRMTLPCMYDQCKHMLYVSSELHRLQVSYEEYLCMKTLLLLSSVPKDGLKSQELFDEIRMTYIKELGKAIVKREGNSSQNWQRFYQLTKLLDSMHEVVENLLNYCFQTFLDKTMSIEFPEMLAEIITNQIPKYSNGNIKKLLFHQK

Q: Which results are given for “human 14-3-3ζ, full length, 6His-Linker-h14-3-3 (from UniProt P63104 1-245) (natural protein)”?
A: Kd [1]: 120000 nM; Kd [2]: 220 nM; Kd [3]: 90000 nM; Kd [4]: 550 nM; Kd [5]: 23000 nM; Kd [6]: 1300 nM; Kd [7]: 140 nM; Kd [8]: 18 nM; Kd [9]: 1200 nM; Kd [10]: 110 nM

Q: Which Kd [11] does the source give for “GR_pT524-pT562, 51-mer doubly phosphorylated peptide used for SPR (from UniProt P04150 518-568)” here?
A: The Kd was 15000 nM.

Q: “14-3-3 proteins, endogenous (detected with anti-pan 14-3-3 antibody) (from UniProt P63104 1-245) (natural protein)” was tested. Which decrease of the interaction against the WT GR [12] did it give?
A: The decrease of the interaction against the WT GR was 35%.

B1: GR_pT524-pS617, 31-mer doubly phosphorylated peptide used for SPR and crystallography (peptide)
peptide: KTIVPATLPQLTPGGGGGRSYRQSSANLLCF
modifications: also: phosphothreonine at T524 and phosphoserine at S617, places in chain not given here
Q: For B1, which Kd [13] is on record?
A: The Kd was 30 nM.

B2: GR_pS83-pT524, FITC-labelled 31-mer doubly phosphorylated peptide (peptide)
peptide: {FITC}-DLSKAVSLSMGLYGGGGGKTIVPATLPQLTP
modifications: also: phosphoserine at S83 and phosphothreonine at T524, places in chain not given here
Q: Which Kd [14] does the source give for B2 here?
A: Its Kd is 900 nM.
